From the nanobody polyreactivity screen of Harvey et al. (2022)

Test: yeast display, Sf9 membrane polyspecificity reagent, FACS + sequencing; frameworks hold sequencing errors
Method in brief: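 A nanobody's polyreactivity label depends on the gate it was sorted from. Yeast display cells were stained with 10% biotinylated, detergent-solubilized Sf9 membrane reagent for 1 hour at 4 °C, enriched on streptavidin microbeads and sorted by FACS. The low and high (top ~1%) gates were set on anti-HA fluorescence for expression and streptavidin fluorescence for reagent binding.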

Sequence	polyreactivity (PSR sort gate)
QVQLVESGGGLVQAGGSLRISCAASGMIFDWYTMGWYRQAPGKERELVAAISWRGGRTYYADSVKGRFTISRDNAQNTVYLQMNSLKPEDTAVYYCAAEGLFTGRVSRFADDHWGQGTQVTVSS	low polyreactivity
QDQLVESGGGLVQAGRSLRLSCAASGYTFRFNAMGWYRQAPGKEREFVAAIDFGGAGTYYADSVKGRFTISRDNAKNTVSLQMNSLKPEDTAVYYCNARDGVTTEFDYWGQGTQVNVSS	low polyreactivity
QVQLVESGGGLVQAGGSLRLSCAASGSTYANAMGWYRQAPGKERELVAAITDNGGRTYYADSVKGRFTISRDNEKNNVYLQMNSLKPEDTAVYYCAARSSVWGQVTQVTVSS	low polyreactivity
QVQLVESGGGLVQAGGSLRLSCAASGSTFESYAMGWYRQAPGKERELVAAISGRVGSTYYADSVKGRFTISRDNAKNTVYLQMNSLKPEDTAVYYCASKGWYSHYGGYDYWGQGTQVTVSS	low polyreactivity
QVQLVESGGGLVQAGGSLRLSCAASGGIFYTYAMGWYRQAPGKERELVAGINWSGSSTYYADSVKGRFTISRDNAKNTVYLQMNSLKPEDTAVYYCAARSYSYSTGDYWGQGTQVTVSS	low polyreactivity
QVQLVESGGGLVQAGGSLRLSSAVSGNTFGPYDMGWYRQAPGKERELVAGNTSGGSTYYADSVKGRFTISLDNAMNTVYLQMNSLKPEDTAVYYCAADYFLWVYWYDYWGQGTQVTVSS	high polyreactivity
QVQLVESGGGLVQAGGSLRLSCAASGSIFFRNAMGWYRQAPGKERELVASITSGGSTYYADSVKGRFTISRDNAKNTVYLLMNSLKPEDTAVFYCAARLWHLSYAGQGGDYWGQGTQVTVSS	low polyreactivity
QVHLVESGAGLVQAGGSLSLSCAASVFTLHVYALGWYRQAPGKERELVAALSTGGNTNYADSVKGRFTISRDNAKNTVYLQMHSLKPEDTAVYYCAASNRGATRRQVNYWGQGTQVTVSS	high polyreactivity
QVQLVETGGGLVQARGSLRLSCAASVRIFYYNAMGWYRQSPGKERELVAAITRSGSTNYAESVKGRFTISRDNAKNTVYLKMNSLKPEDTAVYYCAADSLKRYDYWGQGTQVTVSS	low polyreactivity
QVQLVESGGGLVQAGGSLRLSCAASGFTFGNNAMGWYRQAPGKERELVAGISRTGGRTYYSDSVKGRFTISRDNAKKTVYLKMNSLKPEDTAVYYCNAVSTLYTGYDYWGQGTQVTVSS	high polyreactivity
QVQLVESGGGLVQAGGSLRLSCAASGRTFKYYAMGWYRPAPGKERELVAAISYNGGSTFYADSVKGRFTISRDNAKNTVYLQMNSLKPEDTAVYYCAAGPRGTGKYYWGQGTQVTVSS	high polyreactivity
QVQLVESGGGLVQAGGSLRLSCAASGRTFYYYAMGWSRQAPGKERELVAAIRWRATSTFYADSVKGRFTISRDNAKNTVYLQMNSLKPEDSAVYYCATTGGYRLQAQKYYYWGQGTQVTLSS	high polyreactivity
KVQLVESGGGLVHAGGSLRLSCAASGRIIYYYAMGWYRTAPGKERELVAAISGRGTSTYYADSVKGRFTISRDNAKNTVYLKMNSLKPEDTAVYYCAARYYYWGQGTQVTVSS	high polyreactivity
QVQLVESVGGLVQAGGSLRLSCAASGYTFPDYAMGWYRQAPGKEREFVATISWSGTSTYYADSVKGRFTISRDNAKNTVYLQMNSLKPEDTAVDYCNASAYYPPSSSRYDYWGQGTQVTVSS	low polyreactivity
QVQLVESGGGLVQAGGSLRLSCAASGIIFRIYAMGWYRQAPGKERELVAAITYIGTSTYYADSVKGRFTISRDNAKNTVYLQMNSLKPEDTAVYFCYFYYVFRSDYWGQGTQVTVSS	low polyreactivity
QVQLVESGGGLVQAGGSLRLSCAASGRTFPVYAMGWYRQAPGKERELVATIRRRDGSTYADSVKGRFTISRDNAKNTVYLQMNSLKPEDTAVYYCNAAYSQATPWYYAWYDYCGQGTQVTVSS	high polyreactivity
QVQLVESGGGLLQAGGSLRLSCAASGRNFKYYAMGWYRQAPGKEREFVAAISRSGGRTYYADSVKGRFTISRDNAKNTVYLQMNSLKPEDTAVYYCAAQPSSYVYYRQPFHYWGQGTQVTVSS	high polyreactivity
QVQLVESGGGLVQAGGSLRLSCAASGNIFPYNAMGWYRQAPGKERELVASISSGGSTNYADSVKGRFTISRDNAKNTVYLQMNSLKPEDTAVYYCAKDQSVLSRGGTYDYWGQGTQVTVSS	low polyreactivity
QVQLVESGGGLVQAGGSLRLSCAASGSIFPSNTMGWYRQAPGKERELVATIRWNTGSTYYADSVKGRFTISRDNAKNTVYLQMNSLKPEDTAVYYCAALYVWLWGYRFDYWGQGTQVTVSS	high polyreactivity
QVQLVESGGGLVQAGGSLRLSCAASGSTFYYYAMGWYRQAPGTAREWVAAISYSGGRTYYADSVKGRFTISRDHAKNTDDIQMNSLKPEYTAVYYCATGQPILALRYAYGYWGQATQVTVSS	low polyreactivity
QVQLVESGGGLVQAGGSLRLSCAASGSTFAVYTMGWYRQAPGKERELSTSYADSVKGRFTISRDNAKNTVYLQMNSLKPEDTAVYYCNRDFYEFDSNSYRFDYWGQGTQVTVSS	low polyreactivity

Sequence	polyreactivity (PSR sort gate)
QVQLVESGGGLVQAGGSLRLSCADSARTFYYNTKGWYRQAPGKERELVASISGSGGRTYYADSVKGRFTISRDNAKNTVYLQMNSLKPEDTAVYYFAAGSIRYRFPFGYDYWGQGTQVTLSS	high polyreactivity
QVQLVESGGGLVQAGGSLRLSCAASGRIFRAYTMGWYRQAPGKERELVAAITWRGGRTYYADSVKGRFTISRDNAKNTVYLQMNSLKPEDTAVYYCAAVRKYRAMDYWGQGTQVTVSS	high polyreactivity
QVQLVESGGGLVQAGGSLRLSCVASGRIFARNAMGWYRQAPGKERELVAAITWSVGSTYYADSVKGRFTISRDNAKNTVYLQMISLKPEDTAVYYCAERYWYSRYWYDYWGQGTQVTVSS	high polyreactivity
QVQLVESGGGLVQAGGSLRLSCAASGIIFYGYVMGWYRQAPGKERELVATITSSGGSTYYADSVKGRFTISRDNAKNSVYLQMNSLKPEDTAVYYCAADYYYGAWVRHDYWGQGTQVTVSS	low polyreactivity
NVQLVESGGGLVQAGGSLRLSCAASGRTFPTYAMGWYRQAPGKERELVAAISSSGGSTYYADSVKGRFTISRDNAKNTVYLQMNSLKPEDTAVYYCAALRARNLNPGYDYWGQGTQVTVSS	low polyreactivity
QVQLVESGGGLVQAGGSLRLSCAASGITFYGYAMGWYRQAPGKERELVATISSGGSTNYADSVKGRFTISRDNAKNTVYLQMNSLKPEDTAVYYCNAAPDVNRDYEGSGDYWGQGSQVTVSS	low polyreactivity
QVKLVESGGGLDQAGGSLRLSCAASGTIFRKNAMGWYRQAPGKERELVAAMTGTGRTTYADSVKGRFTISRDNAKNTFYLQMNSLKPEDTAVYYCAADVNYYQHRLYYWGQGTQVTVSS	low polyreactivity
QVQLVESGGRLVQAGGSLRLSCAASGSIFFLYAKGWYRQAPGKERELVAAISGGGGSTYYADSVKGRFTISRDIAKYTVYLLMNSLKPEDTAVYYCAALSKTRGGFWGQGTQVTVSS	high polyreactivity
QVQLVESGGGLVQAGGSLRLSCAASKESINAMGWYRQAPGKERELVAAIGWSGSSTYYADSVKGRFTISRDNAKNTVYLQMNSLKPEDTAVYYCAADTTTGDRGFDYWGQGTQVTVSS	high polyreactivity
QVQLVESGGGLVQAGGSLRLSCAASGRTFRYYAMGWYRQAPGKERELVAAITRSGGSTNYADSVKGRFTISRDNAKNTVYLQMNSLKPEDTAVYYCNREGRSVSGYYYYWGQGTQVTVSS	high polyreactivity
QVQLVESGGGLVQAGGSLRLSCAASGGILRGYAMGWYRQAPGKERELVAAISRGGRTNYADSVKGRFTISRDNAKNTVYLQMNSLKPEDTAVYYCTALSAFQVDNYDYWGQGTQVTVSS	high polyreactivity
QVQHVESGGGLVHAGGSLRLSCAASGLIFRNNAMVLYRQAPGTERELDASITSDGSTNYADSVKGRFRISRDNAKNSFYLQMNSLKPEDTAVYYCAADGYTYWYYQLIPDYDYWGQGTQVTVSS	low polyreactivity
QVQLVESGGGLVQAGGSLRLSCAASGRIFRDYVMGWYRQAPGKERELVAGITGSVDSTNYADSVKGRFTISRDNAKNTVYLQMNSLKPEDTAVYYCNAEFWRGTYRFGYWGQGTQVTVSS	low polyreactivity
QVQLVESGGGLVQAGGSLRLTCAASGTIFVRLDMGWYRQAPGNEREFVATIGSGSSTYYADSVKGSFTISRDNVKNTVYLQMNSLKPEDTAVYYCAVSAAEQSRHYYWDQGTQVTVSS	low polyreactivity
QVPLVESGGGLVQAGGSLRLSCAASGRTFRPYALGWYRQAPGKERELVATISGGGSTYYADSVKGRFTISRDNAKNSLYLQLNSLKPEETAFYYCAKVLTYGGVSYISRMDYWGQATQVTVSS	low polyreactivity
QVQLVESGGGLVQAGGSLRLSCAASGRIFGYYAMGWYRQAPGKERELVAAINSGGSTNYADSVKGRFTISRDNAKNTVYLQMNSLKPEDTAVYYCAAGWRYRYFRSRNFYPYYYWGQGTQVTVSS	high polyreactivity
QVQLVESGGGLVQAGGSLRLSCAASGTFNYYAMGWYRQAPGKERELVAAISNGDSTTYADSVKGRFTISRDNAKNTVYLQMNSLKPEDTAVYYCAAYRYTPRTSRGYYYWGQGTQVTVSS	low polyreactivity
QVQLVESGGGLVQAGGSLRLSCAASGSISGWYAMGWYRQAPGKERELVADISSIAGSTYYADSVKGRFTISRDNAKNTVYLQMNSLKPEDTAVYYCAADRGFYYEYDYWGQGTQVTVSS	low polyreactivity
QVQLVESGGGLVQAGGSLRLSCAASGIIFIPYAMGWYRQAPGKERELVASISKRGGRTYYADSVKGRFTISRDNAKNTVYLQMNSLKPEDTAVYYCAAYARYPVVYGVDYWGQGTQVTVSS	high polyreactivity
QVQLVESGGGLVQAGGSLRLSCAASGSTFVYYAMGWYRQAPGKERELVAAISWSGTRTYYADSVKGRFTISRDNAKNTVYLQMNSLKPEDTAVYYCAARLRANQVKLYYWGQGTQVTVSS	high polyreactivity
